Experimental data reported in patent US20260242419A1, “A CYCLIC PEPTIDE FOR TRAPPING INTERLEUKIN-1 BETA” (Merck Sharp & Dohme LLC, priority 2023, published 2026).
Starred links: 1 amine or outer side, 2 acyl side, 3 side chain; linkers in the order of their positions; H or OH if unused. Non-standard residues stand in square brackets, D forms with d. Bip4CONMe2 = (2S)-2-amino-3-[4-[4-(dimethylcarbamoyl)phenyl]phenyl]propanoic acid, CN(C)C(=O)c1ccc(-c2ccc(C[C@H](N[*:1])C(=O)[*:2])cc2)cc1; TyrEtNAc = (2S)-3-[4-(2-acetamidoethoxy)phenyl]-2-amino-propanoic acid, CC(=O)NCCOc1ccc(C[C@H](N[*:1])C(=O)[*:2])cc1; Phe3Cl4COOH = (S)-4-(2-amino-2-carboxyethyl)-2-chlorobenzoic acid, O=C([C@H](Cc1ccc(C(=O)[*:3])c(Cl)c1)N[*:1])[*:2]; 4PyrimAla = (2S)-2-amino-3-pyrimidin-4-yl-propanoic acid, O=C([C@H](Cc1ccncn1)N[*:1])[*:2]; Phe(4-(5-CO2H-2-pyrimidyl)) = N[C@@H](Cc1ccc(-c2ncc(C(=O)O)cn2)cc1)C(=O)O; Phe(4-(4-Ac-piperazinyl)) = CC(=O)N1CCN(c2ccc(C[C@H](N)C(=O)O)cc2)CC1; Trp(4-Cl)(βS-Me) = C[C@@H](c1c[nH]c2cccc(Cl)c12)[C@H](N)C(=O)O; dPro(4R-(4-pyridylmethyl)) = O=C(O)[C@H]1C[C@@H](Cc2ccncc2)CN1; Trp(βS-Me,4-F) = C[C@@H](c1c[nH]c2cccc(F)c12)[C@H](N)C(=O)O; Bip(4'-CONH2) = NC(=O)c1ccc(-c2ccc(C[C@H](N)C(=O)O)cc2)cc1; Bip(4'-COOH) = N[C@@H](Cc1ccc(-c2ccc(C(=O)O)cc2)cc1)C(=O)O; Ala(1-bicyclo(1.1.1)pentyl) = N[C@@H](CC12CC(C1)C2)C(=O)O; dPro(4R-Bzl(4-F)) = O=C(O)[C@H]1C[C@@H](Cc2ccc(F)cc2)CN1; dPro(3S-(4-F-Bn)) = O=C(O)[C@@H]1NCC[C@@H]1Cc1ccc(F)cc1; Phe(2-Cl,4-COOH) = N[C@@H](Cc1ccc(C(=O)O)cc1Cl)C(=O)O; Bip(4'-Cl) = N[C@@H](Cc1ccc(-c2ccc(Cl)cc2)cc1)C(=O)O; 1Nal(3S-Me) = C[C@@H](c1cccc2ccccc12)[C@H](N)C(=O)O; Ala(pyrimidin-5-yl) = N[C@@H](Cc1cncnc1)C(=O)O; Phe(4-COOH) = N[C@@H](Cc1ccc(C(=O)O)cc1)C(=O)O; Bip = N[C@@H](Cc1ccc(-c2ccccc2)cc1)C(=O)O; Pro(cis-4-F) = O=C(O)[C@@H]1C[C@H](F)CN1; Ala(4-THP) = N[C@@H](CC1CCOCC1)C(=O)O; d(αMeD) = C[C@@](N)(CC(=O)O)C(=O)O; 4Pal = N[C@@H](Cc1ccncc1)C(=O)O; aThr = C[C@H](O)[C@H](N)C(=O)O; d(αMeS) = C[C@@](N)(CO)C(=O)O; Cba = N[C@@H](CC1CCC1)C(=O)O; Dab = NCC[C@H](N)C(=O)O; Aib = CC(C)(N)C(=O)O

B1: SEQ ID NO 363 (peptide)
peptide: cyclo([TyrEtNAc][4Pal][Phe(2-Cl,4-COOH)]G[Pro(cis-4-F)][1Nal(3S-Me)][Aib]SW[d(αMeD)][Ala(4-THP)]Q[Dab]G[dPro(4R-(4-pyridylmethyl))])
SMILES: CC(=O)NCCOc1ccc(C[C@@H]2NC(=O)[C@H]3C[C@@H](Cc4ccncc4)CN3C(=O)CNC(=O)[C@H](CCN)NC(=O)[C@H](CCC(N)=O)NC(=O)[C@H](CC3CCOCC3)NC(=O)[C@@](C)(CC(=O)O)NC(=O)[C@H](Cc3c[nH]c4ccccc34)NC(=O)[C@H](CO)NC(=O)C(C)(C)NC(=O)[C@H]([C@@H](C)c3cccc4ccccc34)NC(=O)[C@@H]3C[C@H](F)CN3C(=O)CNC(=O)[C@H](Cc3ccc(C(=O)O)cc3Cl)NC(=O)[C@H](Cc3ccncc3)NC2=O)cc1
B2: SEQ ID NO 362 (peptide)
peptide: cyclo([TyrEtNAc][4Pal][Phe(4-COOH)]G[Pro(cis-4-F)][Trp(4-Cl)(βS-Me)][Aib]SW[d(αMeD)][Ala(4-THP)]Q[Dab]G[dPro(4R-(4-pyridylmethyl))])
SMILES: CC(=O)NCCOc1ccc(C[C@@H]2NC(=O)[C@H]3C[C@@H](Cc4ccncc4)CN3C(=O)CNC(=O)[C@H](CCN)NC(=O)[C@H](CCC(N)=O)NC(=O)[C@H](CC3CCOCC3)NC(=O)[C@@](C)(CC(=O)O)NC(=O)[C@H](Cc3c[nH]c4ccccc34)NC(=O)[C@H](CO)NC(=O)C(C)(C)NC(=O)[C@H]([C@@H](C)c3c[nH]c4cccc(Cl)c34)NC(=O)[C@@H]3C[C@H](F)CN3C(=O)CNC(=O)[C@H](Cc3ccc(C(=O)O)cc3)NC(=O)[C@H](Cc3ccncc3)NC2=O)cc1
B3: SEQ ID NO 364 (peptide)
peptide: cyclo([Bip(4'-COOH)][4Pal][Phe(4-COOH)]G[Pro(cis-4-F)][Trp(βS-Me,4-F)][Aib]SW[d(αMeS)][Ala(4-THP)]Q[Dab]G[dPro(4R-(4-pyridylmethyl))])
SMILES: C[C@@H](c1c[nH]c2cccc(F)c12)[C@@H]1NC(=O)[C@@H]2C[C@H](F)CN2C(=O)CNC(=O)[C@H](Cc2ccc(C(=O)O)cc2)NC(=O)[C@H](Cc2ccncc2)NC(=O)[C@H](Cc2ccc(-c3ccc(C(=O)O)cc3)cc2)NC(=O)[C@H]2C[C@@H](Cc3ccncc3)CN2C(=O)CNC(=O)[C@H](CCN)NC(=O)[C@H](CCC(N)=O)NC(=O)[C@H](CC2CCOCC2)NC(=O)[C@@](C)(CO)NC(=O)[C@H](Cc2c[nH]c3ccccc23)NC(=O)[C@H](CO)NC(=O)C(C)(C)NC1=O

Biological target: Recombinant human IL-1β (BioLegend 579404) (human, UniProt P01584 117-269)
Assay: cell-based or functional assay

| MRC5 IC50 | Binder |
| --- | --- |
| 0.017 nM | cyclo([Bip(4'-COOH)][4Pal][Phe(4-COOH)]G[Pro(cis-4-F)][1Nal(3S-Me)][Aib]SW[d(αMeD)][aThr]Q[Dab]G[dPro(4R-(4-pyridylmethyl))]) (ring closure inferred) [SEQ ID NO 357] |
| 0.01 nM | cyclo([Bip(4'-COOH)][4Pal][Phe(4-COOH)]G[Pro(cis-4-F)][Trp(βS-Me,4-F)][Aib]EW[Aib][Ala(pyrimidin-5-yl)]Q[Dab]G[dPro(3S-(4-F-Bn))]) (ring closure inferred) [SEQ ID NO 346] |
| 0.018 nM | cyclo([Bip(4'-COOH)][Ala(1-bicyclo(1.1.1)pentyl)][Phe(4-COOH)]G[Pro(cis-4-F)][Trp(βS-Me,4-F)][Aib]SW[d(αMeD)][Cba]Q[Dab]G[dPro(4R-(4-pyridylmethyl))]) (ring closure inferred) [SEQ ID NO 348] |
| 0.012 nM | cyclo([Bip(4'-COOH)][4Pal][Phe(4-COOH)]G[Pro(cis-4-F)][Trp(βS-Me,4-F)][Aib]EW[Aib][4PyrimAla]Q[Dab]G[dPro(4R-Bzl(4-F))]) (ring closure inferred) [SEQ ID NO 345] |
| 0.013 nM | cyclo([Bip(4'-COOH)][4Pal][Phe(2-Cl,4-COOH)]G[Pro(cis-4-F)][Trp(4-Cl)(βS-Me)][Aib]SW[d(αMeD)][aThr]Q[Dab]G[dPro(4R-(4-pyridylmethyl))]) (ring closure inferred) [SEQ ID NO 355] |
| 0.017 nM | cyclo([Bip(4'-COOH)][4Pal][Phe(4-COOH)]G[Pro(cis-4-F)][Trp(βS-Me,4-F)][Aib][aThr]W[d(αMeD)][Ala(4-THP)]Q[Dab]G[dPro(4R-(4-pyridylmethyl))]) (ring closure inferred) [SEQ ID NO 353] |
| 0.022 nM | cyclo([Bip(4'-Cl)][4Pal][Phe(4-COOH)]G[Pro(cis-4-F)][Trp(βS-Me,4-F)][Aib]SW[d(αMeD)][Ala(pyrimidin-5-yl)]Q[Dab]G[dPro(4R-(4-pyridylmethyl))]) (ring closure inferred) [SEQ ID NO 344] |
| 0.014 nM | cyclo([Bip(4'-COOH)][4Pal][Phe(2-Cl,4-COOH)]G[Pro(cis-4-F)][1Nal(3S-Me)][Aib]SW[d(αMeD)][aThr]Q[Dab]G[dPro(4R-(4-pyridylmethyl))]) (ring closure inferred) [SEQ ID NO 354] |
| 0.011 nM | cyclo([Bip(4'-COOH)][4Pal][Phe(2-Cl,4-COOH)]G[Pro(cis-4-F)][Trp(βS-Me,4-F)][Aib]SW[d(αMeD)][aThr]Q[Dab]G[dPro(4R-(4-pyridylmethyl))]) (ring closure inferred) [SEQ ID NO 356] |
| 0.022 nM | cyclo([Phe(4-(5-CO2H-2-pyrimidyl))][4Pal][Phe3Cl4COOH]G[Pro(cis-4-F)][Trp(βS-Me,4-F)][Aib]SW[d(αMeD)][Ala(4-THP)]Q[Dab]G[dPro(4R-(4-pyridylmethyl))]) (ring closure inferred) [SEQ ID NO 361] |
| 0.016 nM | cyclo([Phe(4-(5-CO2H-2-pyrimidyl))][4Pal][Phe(4-COOH)]G[Pro(cis-4-F)][Trp(βS-Me,4-F)][Aib]SW[d(αMeD)][Ala(4-THP)]Q[Dab]G[dPro(4R-(4-pyridylmethyl))]) (ring closure inferred) [SEQ ID NO 351] |
| 0.022 nM | cyclo([Bip(4'-CONH2)][Ala(1-bicyclo(1.1.1)pentyl)][Phe(4-COOH)]G[Pro(cis-4-F)][Trp(βS-Me,4-F)][Aib]SW[d(αMeD)][Ala(pyrimidin-5-yl)]Q[Dab]G[dPro(4R-(4-pyridylmethyl))]) (ring closure inferred) [SEQ ID NO 342] |
| 0.026 nM | cyclo([Bip][Ala(1-bicyclo(1.1.1)pentyl)][Phe(4-COOH)]G[Pro(cis-4-F)][Trp(βS-Me,4-F)][Aib]SW[d(αMeD)][Ala(pyrimidin-5-yl)]Q[Dab]G[dPro(4R-(4-pyridylmethyl))]) (ring closure inferred) [SEQ ID NO 343] |
| 0.02 nM | cyclo([Phe(4-(4-Ac-piperazinyl))][4Pal][Phe(4-COOH)]G[Pro(cis-4-F)][Trp(βS-Me,4-F)][Aib]SW[d(αMeS)][Ala(pyrimidin-5-yl)]Q[Dab]G[dPro(4R-(4-pyridylmethyl))]) (ring closure inferred) [SEQ ID NO 350] |
| 0.017 nM | cyclo([Bip(4'-COOH)][Ala(1-bicyclo(1.1.1)pentyl)][Phe(4-COOH)]G[Pro(cis-4-F)][Trp(βS-Me,4-F)][Aib]SW[d(αMeD)]LQ[Dab]G[dPro(4R-(4-pyridylmethyl))]) (ring closure inferred) [SEQ ID NO 349] |
| 0.013 nM | cyclo([Bip(4'-COOH)][4Pal][Phe(4-COOH)]G[Pro(cis-4-F)][Trp(4-Cl)(βS-Me)][Aib]SW[d(αMeD)][aThr]Q[Dab]G[dPro(4R-(4-pyridylmethyl))]) (ring closure inferred) [SEQ ID NO 358] |
| 0.024 nM | cyclo([Bip4CONMe2][Ala(1-bicyclo(1.1.1)pentyl)][Phe(4-COOH)]G[Pro(cis-4-F)][Trp(βS-Me,4-F)][Aib]SW[d(αMeD)][Ala(pyrimidin-5-yl)]Q[Dab]G[dPro(4R-(4-pyridylmethyl))]) (ring closure inferred) [SEQ ID NO 341] |
| 0.023 nM | cyclo([Bip(4'-COOH)][4Pal][Phe(4-COOH)]G[Pro(cis-4-F)][Trp(βS-Me,4-F)][Aib][aThr]W[d(αMeS)][aThr]Q[Dab]G[dPro(4R-(4-pyridylmethyl))]) (ring closure inferred) [SEQ ID NO 352] |
| 0.019 nM | cyclo([Phe(4-(5-CO2H-2-pyrimidyl))][4Pal][Phe(2-Cl,4-COOH)]G[Pro(cis-4-F)][1Nal(3S-Me)][Aib]SW[d(αMeD)][Ala(4-THP)]Q[Dab]G[dPro(4R-(4-pyridylmethyl))]) (ring closure inferred) [SEQ ID NO 360] |
| 0.025 nM | cyclo([Bip(4'-COOH)][4Pal][Phe(4-COOH)]G[Pro(cis-4-F)][Trp(βS-Me,4-F)][Aib]SW[d(αMeS)]LQ[Dab]G[dPro(4R-(4-pyridylmethyl))]) (ring closure inferred) [SEQ ID NO 347] |
| 0.011 nM | cyclo([Bip(4'-COOH)][4Pal][Phe(4-COOH)]G[Pro(cis-4-F)][Trp(βS-Me,4-F)][Aib]SW[d(αMeD)][aThr]Q[Dab]G[dPro(4R-(4-pyridylmethyl))]) (ring closure inferred) [SEQ ID NO 359] |

Biological target: Recombinant human IL-1β (BioLegend 579404) (human, UniProt P01584 117-269)
Assay: cell-based or functional assay
Remark: another data set of the same source

| MRC5 IC50 | Binder |
| --- | --- |
| 0.021 nM | B1 |
| 0.023 nM | B2 |
| 0.015 nM | B3 |
